Target: recombinant PD-1 molecule (rPD-1), Q15116
Assay: ELISA
Conditions: chain shown with the change, coated antigen (rPD1): 2 µg/mL and 50 µL/well, read off a plot
[1] = L-chain 4 µM, parent: est. 0.94
[2] = L-chain 20 µM, parent: est. 1.14
[3] = L-chain 20 µM (prozone region for this mutant), parent: est. 1.14

Chain of recombinant PD-1 molecule (rPD-1), Q15116 (Q15116 25-167): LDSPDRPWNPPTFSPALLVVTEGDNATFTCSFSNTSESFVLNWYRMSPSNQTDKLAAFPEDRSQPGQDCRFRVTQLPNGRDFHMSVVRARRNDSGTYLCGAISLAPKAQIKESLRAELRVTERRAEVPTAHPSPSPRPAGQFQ

Row | Binder | response [1] | response [2] | response [3]
1 | H34 wild type (H34wt) catalytic antibody light chain T93A (protein) DIQMTQSPSTLSASVGDRVTITCRASQSISSWLAWYQQKPGKAPKVLIYKASTLESGVPLRFSGSGSGTEFTLTISSLQPDDFATYYCQQYSAYRTFGQGTKVEIK | 0.69 OD (490nm) | 1.1 OD (490nm) | 
2 | H34 wild type (H34wt) catalytic antibody light chain D1A (protein) AIQMTQSPSTLSASVGDRVTITCRASQSISSWLAWYQQKPGKAPKVLIYKASTLESGVPLRFSGSGSGTEFTLTISSLQPDDFATYYCQQYSTYRTFGQGTKVEIK | 1.12 OD (490nm) |  | 0.63 OD (490nm)
3 | H34 wild type (H34wt) catalytic antibody light chain T97A (protein) DIQMTQSPSTLSASVGDRVTITCRASQSISSWLAWYQQKPGKAPKVLIYKASTLESGVPLRFSGSGSGTEFTLTISSLQPDDFATYYCQQYSTYRAFGQGTKVEIK | 1.15 OD (490nm) |  | 0.61 OD (490nm)
4 | H34 wild type (H34wt) catalytic antibody light chain R96P (protein) DIQMTQSPSTLSASVGDRVTITCRASQSISSWLAWYQQKPGKAPKVLIYKASTLESGVPLRFSGSGSGTEFTLTISSLQPDDFATYYCQQYSTYPTFGQGTKVEIK | 0.09 OD (490nm) | 0.13 OD (490nm) | 
5 | H34 wild type (H34wt) catalytic antibody light chain R96A (protein) DIQMTQSPSTLSASVGDRVTITCRASQSISSWLAWYQQKPGKAPKVLIYKASTLESGVPLRFSGSGSGTEFTLTISSLQPDDFATYYCQQYSTYATFGQGTKVEIK | 0.07 OD (490nm) | 0.16 OD (490nm) | 

— article PMC9649737
